According to patent publication US20160114017A1 (UNIVERSITY OF PITTSBURGH OF THE COMMONWEALTH SYSTEM OF …, published 2016):

Biological target: T1, HLA-A2 on the cell surface (HLA-A2 transfected T2 cell line; SNB19 glioma cells) (human)
T1 construct: whole, on cells; Class I MHC on cells; also called HLA-A*0201
Assay: T2 cell HLA-A2 stabilisation, flow cytometry, peptide 1 nM overnight
Procedure: The binding capability of these modified peptides was assessed using an HLA-A2 transfected T2 cell line. Aliquots of T2 cells were incubated with modified peptides or IL-13Rα2₃₄₅₋₃₅₃ at 1 nM overnight, and then examined for the surface expression levels of HLA-A2 on T2 cells by flow cytometry. Since stable binding of HLA-A2 with peptide epitopes further stabilizes the surface expression of HLA-A2 (Francini et al., 2002; Alves et al., 2003), quantitative expression levels of HLA-A2, which is indicated by Mean Fluorescence Intensity (MFI) in Table 1, correlate with the binding affinity of the peptide-epitopes that are co-incubated with the T2 cells.

Row | Binder | Binding Index (MFI)
1 | WLPFGFILI (Synthetic peptide incubated with T2 cells at 1 nM overnight; also called IL-13Rα345-353; wild type IL-13Rα2345-353) [Native IL-13Rα2345-353 peptide] | 237 MFI
2 | WLPFGFILV (Synthetic modified peptide; also called IL-13Rα2345-9V) [IL-13Rα2-V9 peptide (I replaced with V at P9)] | 376 MFI
